For experiment [1], the target named is T1, HuCD80-HuIgG1 (fusion protein of the extracellular part of human CD80 and human Fc gamma 1, R&D Systems Cat … (human, UniProt P33681 35-242)).
T1 construct: extracellular domain; bought, produced in NS0 cells; also called CD80-IgG1; CD80-Ig; not shown: human Fc gamma 1
T1 sequence (looked up): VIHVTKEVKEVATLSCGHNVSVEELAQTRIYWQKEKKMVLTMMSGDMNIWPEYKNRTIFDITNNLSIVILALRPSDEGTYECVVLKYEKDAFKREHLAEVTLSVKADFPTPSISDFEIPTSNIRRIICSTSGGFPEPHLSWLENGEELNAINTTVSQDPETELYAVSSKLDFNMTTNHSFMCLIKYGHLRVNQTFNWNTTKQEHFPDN
The experiment is described as follows: SPR, Biacore 3000, antigen amine-coupled. The protocol: (§1) Affinity constants (Kd) of individual purified Nanobody clones were determined by surface plasmon resonance on a Biacore 3000 instrument. […] Remaining reactive groups were inactivated using ethanolamine. Nanobody binding was assessed at 1 and 0.1 microM. Each sample was injected for 4 min at a flow rate of 45 μl/min to allow for binding to chip-bound antigen. Next, binding buffer without Nanobody was sent over the chip at the same flow rate to allow for dissociation of bound Nanobody. After 2 min, remaining bound analyte was removed by injecting regeneration solution (50 mM NaOH or Glycine/HCl pH 1.5). Binding curves obtained at different concentrations of Nanobody were used to calculate Kd values.
Background: In SPR one partner is held on a chip, and binding of the other changes the refractive index at the surface.

Experiment [2] concerns the target T2, HuCD86-HuIgG1 (fusion protein of the extracellular part of human CD86 and human Fc gamma 1, R&D Systems Cat … (human, UniProt P42081 24-247)).
T2 construct: extracellular domain; bought; also called CD86-IgG1; CD86-Ig; not shown: human Fc gamma 1
T2 sequence (looked up): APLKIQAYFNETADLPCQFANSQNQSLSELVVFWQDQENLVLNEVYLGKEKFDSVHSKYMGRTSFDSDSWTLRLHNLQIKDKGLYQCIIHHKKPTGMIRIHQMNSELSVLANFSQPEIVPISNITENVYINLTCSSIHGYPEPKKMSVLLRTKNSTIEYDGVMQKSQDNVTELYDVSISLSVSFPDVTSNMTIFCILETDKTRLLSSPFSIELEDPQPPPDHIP
The experiment is described as follows: SPR, Biacore 3000, antigen amine-coupled. The protocol:
as §1

Experiment [3] deals with T3, HuCD80-MuIgG2a (extracellular (173aa) domain of human CD80 fused to murine IgG2a Fc+hinge (232 aa), Ancell … (human; mouse, UniProt P33681 35-242).
T3 construct: extracellular domain; bought, produced in CHO cells; also called B7-1-muFc; not shown: murine IgG2a Fc+hinge (232 aa)
T3 sequence (looked up): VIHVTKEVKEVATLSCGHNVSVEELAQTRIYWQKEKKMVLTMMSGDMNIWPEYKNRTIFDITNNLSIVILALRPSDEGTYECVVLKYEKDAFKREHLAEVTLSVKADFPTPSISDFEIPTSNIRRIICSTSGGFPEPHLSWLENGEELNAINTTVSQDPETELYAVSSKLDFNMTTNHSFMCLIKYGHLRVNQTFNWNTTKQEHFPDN
The experiment is described as follows: competition ELISA, coated CD80-Ig; blocked ligand CD28-Ig. The method, then:
Inhibition was determined based on OD values of controls having received no Nanobody (high control) or no CD28- or CTLA4-HuIgG1 fusion protein (low control).
In general terms: An ELISA detects its analyte on a solid surface through an enzyme-linked reagent.

Experiment [4] deals with T4, HuCD86-MuIgG2a (fusion protein of the extracellular part of human CD86 and mouse Fc gamma 2a, Ancell Cat … (human; mouse, UniProt P42081 24-247; P01863 98-330 = IgG part).
T4 construct: extracellular domain;domain: Fc; bought; also called B7-2
The experiment can be described thus: competition ELISA, coated CD86-Ig; blocked ligand CD28-Ig.

B1: CD8086PMP1E11 (VHH)
VHH: EVQLVESGGGLVQPGGSLRLSCAASGFTLDYSAIGWFRQAPGKEREGVSYISSSDGSTYYADSVEGRFTISRDNAKNTLYLQMNSLKPEDTAVYYCAAGGPFTVSTMPWLANYWGQGTQVTVSS
notes: not shown: C-terminal c-myc tag and His6 tag
Take B1: in experiment [1], the Kd came out at 23 nM, the dissociation rate constant (koff) amounted to 0.0004 s⁻¹ and the on-rate constant (kon) was determined as 18000 M⁻¹ s⁻¹. Moreover, in experiment [2], the dissociation constant Kd stood at 553 nM, the off-rate constant (koff) was 0.002 s⁻¹ and the kon is 3600 M⁻¹ s⁻¹. In experiment [3], the “IC50 (read off the curve)” value is around 400 nM. Besides, in experiment [4], the “IC50 (read off the curve)” value was around 10 nM.

For orientation: Kd means the concentration at which binding is half-saturated. A high value points to a looser complex. For orientation: koff means the first-order rate constant of dissociation. Read a low koff as slow dissociation. As a reminder, the kon is the second-order rate constant of association. Higher therefore signals faster complex formation.
